B1: K491D: PLCγ1 variant with K491D mutation in the nucleotide binding site (protein, UniProt P19174 2-1290, looked up, variant K491D)
1-phosphatidylinositol …: AGAASPCANGCGPGAPSDAEVLHLCRSLEVGTVMTLFYSKKSQRPERKTFQVKLETRQITWSRGADKIEGAIDIREIKEIRPGKTSRDFDRYQEDPAFRPDQSHCFVILYGMEFRLKTLSLQATSEDEVNMWIKGLTWLMEDTLQAPTPLQIERWLRKQFYSVDRNREDRISAKDLKNMLSQVNYRVPNMRFLRERLTDLEQRSGDITYGQFAQLYRSLMYSAQKTMDLPFLEASTLRAGERPELCRVSLPEFQQFLLDYQGELWAVDRLQVQEFMLSFLRDPLREIEEPYFFLDEFVTFLFSKENSVWNSQLDAVCPDTMNNPLSHYWISSSHNTYLTGDQFSSESSLEAYARCLRMGCRCIELDCWDGPDGMPVIYHGHTLTTKIKFSDVLHTIKEHAFVASEYPVILSIEDHCSIAQQRNMAQYFKKVLGDTLLTKPVEISADGLPSPNQLKRKILIKHKKLAEGSAYEEVPTSMMYSENDISNSIDNGILYLEDPVNHEWYPHYFVLTSSKIYYSEETSSDQGNEDEEEPKEVSSSTELHSNEKWFHGKLGAGRDGRHIAERLLTEYCIETGAPDGSFLVRESETFVGDYTLSFWRNGKVQHCRIHSRQDAGTPKFFLTDNLVFDSLYDLITHYQQVPLRCNEFEMRLSEPVPQTNAHESKEWYHASLTRAQAEHMLMRVPRDGAFLVRKRNEPNSYAISFRAEGKIKHCRVQQEGQTVMLGNSEFDSLVDLISYYEKHPLYRKMKLRYPINEEALEKIGTAEPDYGALYEGRNPGFYVEANPMPTFKCAVKALFDYKAQREDELTFIKSAIIQNVEKQEGGWWRGDYGGKKQLWFPSNYVEEMVNPVALEPEREHLDENSPLGDLLRGVLDVPACQIAIRPEGKNNRLFVFSISMASVAHWSLDVAADSQEELQDWVKKIREVAQTADARLTEGKIMERRKKIALELSELVVYCRPVPFDEEKIGTERACYRDMSSFPETKAEKYVNKAKGKKFLQYNRLQLSRIYPKGQRLDSSNYDPLPMWICGSQLVALNFQTPDKPMQMNQALFMTGRHCGYVLQPSTMRDEAFDPFDKSSLRGLEPCAISIEVLGARHLPKNGRGIVCPFVEIEVAGAEYDSTKQKTEFVVDNGLNPVWPAKPFHFQISNPEFAFLRFVVYEEDMFSDQNFLAQATFPVKGLKTGYRAVPLKNNYSEDLELASLLIKIDIFPAKENGDLSPFSGTSLRERGSDASGQLFHGRAREGSFESRYQQPFEDFRISQEHLADHFDSRERRAPRRTRVNGDNRL
B2: PLCγ1^wt: full-length wild-type human PLCγ1 enzyme (protein, UniProt P19174 1-1290, looked up)
chain: MAGAASPCANGCGPGAPSDAEVLHLCRSLEVGTVMTLFYSKKSQRPERKTFQVKLETRQITWSRGADKIEGAIDIREIKEIRPGKTSRDFDRYQEDPAFRPDQSHCFVILYGMEFRLKTLSLQATSEDEVNMWIKGLTWLMEDTLQAPTPLQIERWLRKQFYSVDRNREDRISAKDLKNMLSQVNYRVPNMRFLRERLTDLEQRSGDITYGQFAQLYRSLMYSAQKTMDLPFLEASTLRAGERPELCRVSLPEFQQFLLDYQGELWAVDRLQVQEFMLSFLRDPLREIEEPYFFLDEFVTFLFSKENSVWNSQLDAVCPDTMNNPLSHYWISSSHNTYLTGDQFSSESSLEAYARCLRMGCRCIELDCWDGPDGMPVIYHGHTLTTKIKFSDVLHTIKEHAFVASEYPVILSIEDHCSIAQQRNMAQYFKKVLGDTLLTKPVEISADGLPSPNQLKRKILIKHKKLAEGSAYEEVPTSMMYSENDISNSIKNGILYLEDPVNHEWYPHYFVLTSSKIYYSEETSSDQGNEDEEEPKEVSSSTELHSNEKWFHGKLGAGRDGRHIAERLLTEYCIETGAPDGSFLVRESETFVGDYTLSFWRNGKVQHCRIHSRQDAGTPKFFLTDNLVFDSLYDLITHYQQVPLRCNEFEMRLSEPVPQTNAHESKEWYHASLTRAQAEHMLMRVPRDGAFLVRKRNEPNSYAISFRAEGKIKHCRVQQEGQTVMLGNSEFDSLVDLISYYEKHPLYRKMKLRYPINEEALEKIGTAEPDYGALYEGRNPGFYVEANPMPTFKCAVKALFDYKAQREDELTFIKSAIIQNVEKQEGGWWRGDYGGKKQLWFPSNYVEEMVNPVALEPEREHLDENSPLGDLLRGVLDVPACQIAIRPEGKNNRLFVFSISMASVAHWSLDVAADSQEELQDWVKKIREVAQTADARLTEGKIMERRKKIALELSELVVYCRPVPFDEEKIGTERACYRDMSSFPETKAEKYVNKAKGKKFLQYNRLQLSRIYPKGQRLDSSNYDPLPMWICGSQLVALNFQTPDKPMQMNQALFMTGRHCGYVLQPSTMRDEAFDPFDKSSLRGLEPCAISIEVLGARHLPKNGRGIVCPFVEIEVAGAEYDSTKQKTEFVVDNGLNPVWPAKPFHFQISNPEFAFLRFVVYEEDMFSDQNFLAQATFPVKGLKTGYRAVPLKNNYSEDLELASLLIKIDIFPAKENGDLSPFSGTSLRERGSDASGQLFHGRAREGSFESRYQQPFEDFRISQEHLADHFDSRERRAPRRTRVNGDNRL
modifications: full-length
notes: full-length wild-type human PLCγ1 enzyme

Assay: Specific activity of PLC variants in assay 2 (A2)
Assay type: biochemical
Details: aldol substrate in solution
Procedure: The effect of nucleotide inhibition on PLC activity was measured using either a membrane-based assay with the fluorescent substrate (XY-69) incorporated into liposomes or using a small soluble substrate, Aldol 518 myo-inositol-1-phosphate (Aldol). Both methods utilised the same PLC assay buffer [20 mM Hepes-KOH, 70 mM KCl, 3 mM EGTA, 2.97 mM CaCl2, 2 mM TCEP and fatty acid-free bovine serum albumin (FAF-BSA; 50 μg/ml) (pH 7.5)]. Both assays were performed in low volume black 384-well plates (Greiner Bio-One), were composed of a final assay volume of 20 μl and were monitored in a Clariostar plate reader (BMG Labtech). […] The excitation and emission wavelengths were 588–15 and 642–20, respectively.
A CLARIOstar plate reader (BMG Labtech) was used to measure the production of the fluorescent product. The excitation and emission wavelengths were 485–15 and 520–20, respectively. Each experiment was performed in at least triplicate; in many cases, nine-fold replicates were generated. The enzyme progress curves were plotted for each concentration of nucleotide using Graphpad Prism software. The initial linear rate of product generation was calculated and converted to a % inhibition when compared with the rate of PLC activity in the absence of nucleotide. […]

Molecule	Specific Activity A2 [RFU/min/mg]
B1	18974 ± 796
B2	18606 ± 685

— article PMC12687421, “Characterisation of an allosteric site in PLCγ enzymes and implications for development of their specific inhibitors” (Biochemical Journal, 2025)
